Results on five molecules are retold here after patent publication US20170015742A1 (published 2017).

Some results are limits rather than exact numbers.

Assay [1] deals with T1, recombinant human PDGF-BB (human, UniProt P01127 82-190).
T1 construct: also called hPDGF-BB; huPDGF-BB
Nature of the assay: competition ELISA: blocks hPDGF-BB-biotin binding to coated hPDGF-Rβ-Fc. The procedure: (§1) Plates were then washed four times with wash buffer (TBS, 0.05% Tween-20) and blocked with Superblock blocking buffer (Thermo Scientific, cat#37535). During the blocking step, supernatants, antibodies, benchmark compounds or DVD-Ig were diluted in assay diluent (10% Superblock containing 0.05% surfactamps) and an eight point titration of each sample molecule was performed. […] Following incubation, plates were washed four times with wash buffer. Detection reagent Streptavidin-polyHRP-40 (Fitzgerald, cat#65r-s104phrp) was diluted in assay diluent and added to plates (50 μL) for 45 minutes at 25° C. with shaking. Plates were washed four times with wash buffer and developed with the addition of Enhanced K-blue TMB substrate (Neogen, cat#308177). The reaction was stopped with 2N sulfuric acid (VWR, cat# BDH3500-1) and the absorbance was read at 450 nm-570 nm. […] Data was analyzed using Softmax Pro 4.8 software and IC₅₀ values calculated using a sigmoidal dose response (variable slope) fit in GraphPad Prism 5.

The target of assay [2] is T2, recombinant human VEGF165 (human, UniProt P15692 207-395).
T2 construct: also called hVEGF165; huVEGF-A165
T2 sequence (P15692 other isoform, or with tags, fused parts or gaps limits assumed): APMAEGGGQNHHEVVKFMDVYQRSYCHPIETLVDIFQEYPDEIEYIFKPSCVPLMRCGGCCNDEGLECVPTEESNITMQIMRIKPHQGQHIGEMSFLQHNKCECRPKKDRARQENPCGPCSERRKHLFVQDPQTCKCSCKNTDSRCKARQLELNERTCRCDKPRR
Nature of the assay: competition ELISA: blocks biotinylated hVEGF165 binding to coated hVEGF-R2-Fc. The procedure: To identify molecules that could block the binding of hVEGF₁₆₅ to the hVEGF-R2 (KDR/Flk-1) receptor, a competition ELISA was performed. […] Plates were then washed four times with wash buffer (TBS, 0.05% Tween-20) and blocked with Superblock blocking buffer (Thermo Scientific, cat#37535). […] The pre-incubated sample/hVEGF₁₆₅ complex was added to the coated plate at 50 μL in duplicate and incubated for 30 minutes at 25° C. with shaking. Following incubation, plates were washed four times with wash buffer. Streptavidin-polyHRP-40 (Fitzgerald cal#65r-s104phrp) was diluted in assay diluent (10% Superblock containing 0.05% surfactamps) and added to plates (50 μL) for 45 minutes at 25° C. with shaking. Plates were washed four times with wash buffer and developed with the addition of Enhanced K-blue TMB substrate (Neogen cat#308177). The reaction was stopped with 2N sulfuric acid (VWR, cat# BDH3500-1) and the absorbance was read at 450 nm-570 nm. A decrease in observed optical density indicates the test molecule is blocking the hVEGF₁₆₅ binding to the hVEGF-R2-Fc. Data was analyzed using Softmax Pro 4.8 software and IC₅₀ values calculated using a sigmoidal dose response (variable slope) fit in GraphPad Prism 5.
For orientation: In an ELISA, binding on a coated surface is turned into a signal by an enzyme label.

In assay [3] the target is T2, recombinant human VEGF165. Nature of the assay: cell-based or functional assay.
For assay [4], the target named is T1, recombinant human PDGF-BB. Nature of the assay: cell-based or functional assay.
Assay [5] has as its target T3, recombinant human PDGF-BB (human, UniProt P01127 82-190, biotin-labelled in the binding and competition ELISAs (sites not given)). Nature of the assay: cell-based or functional assay.
The target in assay [6] is T3, recombinant human PDGF-BB. Nature of the assay: receptor competition ELISA: antibody pre-incubated with biotin-hPDGF-BB, binding to coated hPDGF-Rβ-Fc. The protocol: as §1

T1 sequence (P01127 82-190 limits assumed): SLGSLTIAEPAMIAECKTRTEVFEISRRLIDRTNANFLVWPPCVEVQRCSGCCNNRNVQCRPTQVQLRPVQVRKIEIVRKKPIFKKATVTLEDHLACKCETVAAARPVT
T3 sequence (P01127 82-190 limits assumed): as above

B1: 9E10.1_GS_CL-33675 (bispecific antibody, human IgG1, kappa, L234A L235A)
heavy: EIQLVQSGSELKKPGASVKVSCKASGYTFTNYGMYWVKQAPGQGLEYMGWIDTETGRPTYADDFKGRFVFSLDTSVSTAYLQISSLKAEDTAVYFCARWSGDTTGIRGPWFAYWGQGTLVTVSSGGGGSGGGGSEVTLRESGPALVKPTQTLTLTCTFSGFSLSTYGMGVGWIRQPPGKALEWLANIWWDDDKYYNPSLKNRLTISKDTSKNQVVLTMTNMDPVDTATYYCARIESSGPKYSFDYWGQGTMVTVSSASTKGPSVFPLAPSSKSTSGGTAALGCLVKDYFPEPVTVSWNSGALTSGVHTFPAVLQSSGLYSLSSVVTVPSSSLGTQTYICNVNHKPSNTKVDKKVEPKSCDKTHTCPPCPAPEAAGGPSVFLFPPKPKDTLMISRTPEVTCVVVDVSHEDPEVKFNWYVDGVEVHNAKTKPREEQYNSTYRVVSVLTVLHQDWLNGKEYKCKVSNKALPAPIEKTISKAKGQPREPQVYTLPPSREEMTKNQVSLTCLVKGFYPSDIAVEWESNGQPENNYKTTPPVLDSDGSFFLYSKLTVDKSRWQQGNVFSCSVMHEALHNAYTQKSLSLSPGK
light: DIRMTQSPSSLSASVGDRVTIECLASEDIYSDLAWYQQKPGKSPKLLIYNANGLQNGVPSRFSGSGSGTDYSLTISSLQPEDVATYFCQQYNYFPGTFGQGTKLEIKGGSGGGGSGGEIVLTQSPGTLSLSPGERATLSCRASSGSIWYSFVSWYQQKPGQAPRLLIYADDQRASGIPDRFSGSGSGTDFTLTISRLEPEDFAVYYCQSYGINIDVVFGGGTKVEIKRTVAAPSVFIFPPSDEQLKSGTASVVCLLNNFYPREAKVQWKVDNALQSGNSQESVTEQDSKDSTYSLSSTLTLSKADYEKHKVYACEVTHQGLSSPVTKSFNRGEC
notes: DVD-Ig, outer hBEW-9E10.1, inner CL-33675, GS-H10/GS-L10(dR), hu IgG1/k LALA H435A; also called PR-1610561; 9E10.1-GS-33675
Consider B1, for which the IC50 in assay [1] was found to be 0.09 nM; in assay [2], 0.045 nM. In addition, the “Potency IC50 (nM) HMVEC-d hVEGF165” value in assay [3] came to 0.145 nM. Moreover, the “Potency IC50 (nM) NIH-3T3 hPDGF-BB” value in assay [4] stood at 0.034 nM.

B2: hVEGF 4G8.3-LS-hPDGF 9E8.4 [hu IgG1/k] mut(234, 235) H435A (bispecific antibody)
heavy: EVQLVQSGSELKKPGASVKVSCKASGYTFTNYGMYWVRQAPGQGLEWMGWINTETGKPTYADDFKGRFVFSLDTSVSTAYLQISSLKAEDTAVYYCARTNYYYRSYIFYFDYWGQGTMVTVSSASTKGPSVFPLAPEVTLRESGPALVKPTQTLTLTCTFSGFSLSTYGMGVGWIRQPPGKALEWLANIWWDDDKYYNPSLKNRLTISKDTSKNQVVLTMTNMDPVDTATYYCARIESIGTTYSFDYWGQGTMVTVSSASTKGPSVFPLAPSSKSTSGGTAALGCLVKDYFPEPVTVSWNSGALTSGVHTFPAVLQSSGLYSLSSVVTVPSSSLGTQTYICNVNHKPSNTKVDKKVEPKSCDKTHTCPPCPAPEAAGGPSVFLFPPKPKDTLMISRTPEVTCVVVDVSHEDPEVKFNWYVDGVEVHNAKTKPREEQYNSTYRVVSVLTVLHQDWLNGKEYKCKVSNKALPAPIEKTISKAKGQPREPQVYTLPPSREEMTKNQVSLTCLVKGFYPSDIAVEWESNGQPENNYKTTPPVLDSDGSFFLYSKLTVDKSRWQQGNVFSCSVMHEALHNAYTQKSLSLSPGK
light: DTVLTQSPATLSLSPGERATLSCRASESVSTHMHWYQQKPGQAPRLLIYGASNLESGVPARFSGSGSGTDFTLTISSLEPEDFAVYFCQQSWNDPFTFGQGTKLEIKRTVAAPEFVLTQSPGTLSLSPGERATLSCERSSGDIGDSYVSWYQQKPGQAPRLVIYADDQRPSGIPDRFSGSGSGTDFTLTISRLEPEDFAVYYCQSYDINIDIVFGGGTKVEIKGTVAAPSVFIFPPSDEQLKSGTASVVCLLNNFYPREAKVQWKVDNALQSGNSQESVTEQDSKDSTYSLSSTLTLSKADYEKHKVYACEVTHQGLSSPVTKSFNRGEC
notes: DVD-Ig, outer hBDB-4G8.3, inner hBDI-9E8.4, HG-long/LK-short; also called PR-1575573; 4G8.3-LS-9E8.4
Turning to B2, the results for the IC50 in assay [1] and in assay [2] were more than 5 nM and 0.131 nM, respectively.

B3: hVEGF 4G8.3-SL-hPDGF 9E8.4 [hu IgG1/k] mut(234, 235) H435A (bispecific antibody)
heavy: EVQLVQSGSELKKPGASVKVSCKASGYTFTNYGMYWVRQAPGQGLEWMGWINTETGKPTYADDFKGRFVFSLDTSVSTAYLQISSLKAEDTAVYYCARTNYYYRSYIFYFDYWGQGTMVTVSSASTKGPEVTLRESGPALVKPTQTLTLTCTFSGFSLSTYGMGVGWIRQPPGKALEWLANIWWDDDKYYNPSLKNRLTISKDTSKNQVVLTMTNMDPVDTATYYCARIESIGTTYSFDYWGQGTMVTVSSASTKGPSVFPLAPSSKSTSGGTAALGCLVKDYFPEPVTVSWNSGALTSGVHTFPAVLQSSGLYSLSSVVTVPSSSLGTQTYICNVNHKPSNTKVDKKVEPKSCDKTHTCPPCPAPEAAGGPSVFLFPPKPKDTLMISRTPEVTCVVVDVSHEDPEVKFNWYVDGVEVHNAKTKPREEQYNSTYRVVSVLTVLHQDWLNGKEYKCKVSNKALPAPIEKTISKAKGQPREPQVYTLPPSREEMTKNQVSLTCLVKGFYPSDIAVEWESNGQPENNYKTTPPVLDSDGSFFLYSKLTVDKSRWQQGNVFSCSVMHEALHNAYTQKSLSLSPGK
light: DTVLTQSPATLSLSPGERATLSCRASESVSTHMHWYQQKPGQAPRLLIYGASNLESGVPARFSGSGSGTDFTLTISSLEPEDFAVYFCQQSWNDPFTFGQGTKLEIKRTVAAPSVFIFPPEFVLTQSPGTLSLSPGERATLSCERSSGDIGDSYVSWYQQKPGQAPRLVIYADDQRPSGIPDRFSGSGSGTDFTLTISRLEPEDFAVYYCQSYDINIDIVFGGGTKVEIKGTVAAPSVFIFPPSDEQLKSGTASVVCLLNNFYPREAKVQWKVDNALQSGNSQESVTEQDSKDSTYSLSSTLTLSKADYEKHKVYACEVTHQGLSSPVTKSFNRGEC
notes: DVD-Ig, outer hBDB-4G8.3, inner hBDI-9E8.4, HG-short/LK-long; also called 4G8.3-SL-9E8.4
For the molecule B3, the IC50 in assay [1] is more than 5 nM; in assay [2], 0.133 nM. Besides, the “Potency IC50 (nM) HMVEC-d hVEGF165” value in assay [3] was 0.36 nM. In addition, the “Potency IC50 (nM) NIH-3T3 hPDGF-BB” value in assay [4] was 0.427 nM.

B4: chBDI-1E1 (antibody, human IgG1, V domains shown)
VH: EVKLQQSGDELVRPGASVKMSCKASGYTFTDYVMHWVKQSPGQGLEWIGTIIPLIDTTSYNQKFKGKATLTADKSSNTAYMELSRLTSEDSAVYYCARTSPYYYSSYDVMDAWGQGASVTVSS
VL: NIQLTQSPSLLSASVGDRVTLSCKGSQNINNYLAWYQQKLGEAPKLLIYKTNNLQTGIPSRFSGCGSGTDYTLTISSLHSEDLATYYCYQYDNGYTFGAGTKLELK
notes: also called chimeric BDI-1E1-D5
B4: in assay [5], the “huPDGF-BB Neutralization Potency (nM) in NIH-3T3 Cells” value is more than 5 nM. For the same molecule, the IC50 in assay [6] came out at 0.417 nM.

B5: hVEGF 4G8.3-GS-hPDGF 9E8.4 [hu IgG1/k] mut(234, 235) H435A (bispecific antibody)
heavy: EVQLVQSGSELKKPGASVKVSCKASGYTFTNYGMYWVRQAPGQGLEWMGWINTETGKPTYADDFKGRFVFSLDTSVSTAYLQISSLKAEDTAVYYCARTNYYYRSYIFYFDYWGQGTMVTVSSGGGGSGGGGSEVTLRESGPALVKPTQTLTLTCTFSGFSLSTYGMGVGWIRQPPGKALEWLANIWWDDDKYYNPSLKNRLTISKDTSKNQVVLTMTNMDPVDTATYYCARIESIGTTYSFDYWGQGTMVTVSSASTKGPSVFPLAPSSKSTSGGTAALGCLVKDYFPEPVTVSWNSGALTSGVHTFPAVLQSSGLYSLSSVVTVPSSSLGTQTYICNVNHKPSNTKVDKKVEPKSCDKTHTCPPCPAPEAAGGPSVFLFPPKPKDTLMISRTPEVTCVVVDVSHEDPEVKFNWYVDGVEVHNAKTKPREEQYNSTYRVVSVLTVLHQDWLNGKEYKCKVSNKALPAPIEKTISKAKGQPREPQVYTLPPSREEMTKNQVSLTCLVKGFYPSDIAVEWESNGQPENNYKTTPPVLDSDGSFFLYSKLTVDKSRWQQGNVFSCSVMHEALHNAYTQKSLSLSPGK
light: DTVLTQSPATLSLSPGERATLSCRASESVSTHMHWYQQKPGQAPRLLIYGASNLESGVPARFSGSGSGTDFTLTISSLEPEDFAVYFCQQSWNDPFTFGQGTKLEIKRGGSGGGGSGEFVLTQSPGTLSLSPGERATLSCERSSGDIGDSYVSWYQQKPGQAPRLVIYADDQRPSGIPDRFSGSGSGTDFTLTISRLEPEDFAVYYCQSYDINIDIVFGGGTKVEIKGTVAAPSVFIFPPSDEQLKSGTASVVCLLNNFYPREAKVQWKVDNALQSGNSQESVTEQDSKDSTYSLSSTLTLSKADYEKHKVYACEVTHQGLSSPVTKSFNRGEC
notes: DVD-Ig, outer anti-VEGF hBDB-4G8.3, inner anti-PDGF hBDI-9E8.4; also called 4G8.3-GS-9E8.4
On to B5, for which the IC50 in assay [1] was more than 5 nM; in assay [2], 0.137 nM. For the same molecule, the “Potency IC50 (nM) HMVEC-d hVEGF165” value in assay [3] was 0.341 nM. Further, the “Potency IC50 (nM) NIH-3T3 hPDGF-BB” value in assay [4] turned out to be 0.63 nM.

One may read the IC50 as the concentration that gives 50% inhibition.
